Assay results as given in patent publication US20240261333A1, “NOVEL TARGETS FOR ENHANCING ANTI-TUMOR IMMUNITY” (THE BROAD INSTITUTE, INC., priority 2021, published 2024).

T1: B3GNT2 (Homo sapiens, UniProt Q9NY97)
T1 construct: The respective ORFs of candidate genes [CD274 (NM_014143), MCL1 (NM_021960), JUNB (NM_002229), and B3GNT2 (NM_006577)] were synthesized; expressed in transfected cells; host or cells: A375 melanoma cells (lentiviral ORF overexpression)
T1 sequence (Q9NY97 1-397): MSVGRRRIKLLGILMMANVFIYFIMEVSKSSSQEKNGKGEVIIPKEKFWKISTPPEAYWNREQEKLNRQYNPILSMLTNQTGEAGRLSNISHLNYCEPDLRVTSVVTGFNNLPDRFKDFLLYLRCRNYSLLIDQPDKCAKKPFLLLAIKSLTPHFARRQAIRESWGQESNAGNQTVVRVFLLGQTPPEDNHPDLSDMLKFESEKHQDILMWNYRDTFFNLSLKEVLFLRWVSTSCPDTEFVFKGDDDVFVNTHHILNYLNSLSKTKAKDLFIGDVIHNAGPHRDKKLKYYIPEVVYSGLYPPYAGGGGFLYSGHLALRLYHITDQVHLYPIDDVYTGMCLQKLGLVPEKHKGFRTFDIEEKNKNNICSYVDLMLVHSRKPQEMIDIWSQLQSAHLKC


Molecular target: T1, B3GNT2
Test: Co-IP of FLAG-tagged B3GNT2 followed by mass spectrometry
Type: cell-based
Parameters: C-term IgG / C-term flag: unit not given here
Details: mass spectrometry count, unit not given; for C-term flag / N-term FLAG: Co-IP with FLAG antibody; for C-term flag / C-term IgG: C-terminally FLAG-tagged B3GNT2; for N-term FLAG / N-term IgG: N-terminally FLAG-tagged B3GNT2; for C-term IgG / N-term IgG: Co-IP with IgG control antibody
Procedure, shortened: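 FLAG-tagged B3GNT2 immunoprecipitated from cell lysate (HEPES, 1% Triton X-100, 150 mM NaCl) with anti-FLAG versus […], overnight at 4° C, then captured on Protein A/G magnetic beads for 4 h. Two biological replicates per condition. Peptides fractionated and analyzed by nano-LC on an Orbitrap Elite in data-dependent mode.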

C-term flag | N-term FLAG | C-term IgG | N-term IgG | Molecule
6 | 10 | 2 | 0 | HSPD1 (protein) AKDVKFGADARALMLQGVDLLADAVAVTMGPKGRTVIIEQSWGSPKVTKDGVTVAKSIDLKDKYKNIGAKLVQDVANNTNEEAGDGTTTATVLARSIAKEGFEKISKGANPVEIRRGVMLAVDAVIAELKKQSKPVTTPEEIAQVATISANGDKEIGNIISDAMKKVGRKGVITVKDGKTLNDELEIIEGMKFDRGYISPYFINTSKGQKCEFQDAYVLLSEKKISSIQSIVPALEIANAHRKPLVIIAEDVDGEALSTLVLNRLKVGLQVVAVKAPGFGDNRKNQLKDMAIATGGAVFGEEGLTLNLEDVQPHDLGKVGEVIVTKDDAMLLKGKGDKAQIEKRIQEIIEQLDVTTSEYEKEKLNERLAKLSDGVAVLKVGGTSDVEVNEKKDRVTDALNATRAAVEEGIVLGGGCALLRCIPALDSLTPANEDQKIGIEIIKRTLKIPAMTIAKNAGVEGSLIVEKIMQSSSEVGYDAMAGDFVNMVEKGIIDPTKVVRTALLDAAGVASLLTTAEVVVTEIPKEEKDPGMGAMGGMGGGMGGGMF
2 | 0 | 0 | 0 | RRP12 (protein) MGRSGKLPSGVSAKLKRWKKGHSSDSNPAICRHRQAARSRFFSRPSGRSDLTVDAVKLHNELQSGSLRLGKSEAPETPMEEEAELVLTEKSSGTFLSGLSDCTNVTFSKVQRFWESNSAAHKEICAVLAAVTEVIRSQGGKETETEYFAALVLSCLATLLRKQDLEAWGYPVTLQVYHGLLSFTVHPKPKIRKAAQHGVCSVLKGSEFMFEKAPAHHPAAISTAKFCIQEIEKSGGSKEATTTLHMLTLLKDLLPCFPEGLVKSCSETLLRVMTLSHVLVTACAMQAFHSLFHARPGLSTLSAELNAQIITALYDYVPSENDLQPLLAWLKVMEKAHINLVRLQWDLGLGHLPRFFGTAVTCLLSPHSQVLTAATQSLKEILKECVAPHMADIGSVTSSASGPAQSVAKMFRAVEEGLTYKFHAAWSSVLQLLCVFFEACGRQAHPVMRKCLQSLCDLRLSPHFPHTAALDQAVGAAVTSMGPEVVLQAVPLEIDGSEETLDFPRSWLLPVIRDHVQETRLGFFTTYFLPLANTLKSKAMDLAQAGSTVESKIYDTLQWQMWTLLPGFCTRPTDVAISFKGLARTLGMAISERPDLRVTVCQALRTLITKGCQAEADRAEVSRFAKNFLPILFNLYGQPVAAGDTPAPRRAVLETIRTYLTITDTQLVNSLLEKASEKVLDPASSDFTRLSVLDLVVALAPCADEAAISKLYSTIRPYLESKAHGVQKKAYRVLEEVCASPQGPGALFVQSHLEDLKKTLLDSLRSTSSPAKRPRLKCLLHIVRKLSAEHKEFITALIPEVILCTKEVSVGARKNAFALLVEMGHAFLRFGSNQEEALQCYLVLIYPGLVGAVTMVSCSILALTHLLFEFKGLMGTSTVEQLLENVCLLLASRTRDVVKSALGFIKVAVTVMDVAHLAKHVQLVMEAIGKLSDDMRRHFRMKLRNLFTKFIRKFGFELVKRLLPEEYHRVLVNIRKAEARAKRHRALSQAAVEEEEEEEEEEEPAQGKGDSIEEILADSEDEEDNEEEERSRGKEQRKLARQRSRAWLKEGGGDEPLNFLDPKVAQRVLATQPGPGRGRKKDHGFKVSADGRLIIREEADGNKMEEEEGAKGEDEEMADPMEDVIIRNKKHQKLKHQKEAEEEELEIPPQYQAGGSGIHRPVAKKAMPGAEYKAKKAKGDVKKKGRPDPYAYIPLNRSKLNRRKKMKLQGQFKGLVKAARRGSQVGHKNRRKDRRP
2 | 0 | 0 | 0 | CCT2 (protein) MDKILLSSGRDASLMVTNDGATILKNIGVDNPAAKVLVDMSRVQDDEVGDGTTSVTVLAAELLREAESLIAKKIHPQTIIAGWREATKAAREALLSSAVDHGSDEVKFRQDLMNIAGTTLSSKLLTHHKDHFTKLAVEAVLRLKGSGNLEAIHIIKKLGGSLADSYLDEGFLLDKKIGVNQPKRIENAKILIANTGMDTDKIKIFGSRVRVDSTAKVAEIEHAEKEKMKEKVERILKHGINCFINRQLIYNYPEQLFGAAGVMAIEHADFAGVERLALVTGGEIASTFDHPELVKLGSCKLIEEVMIGEDKLIHFSGVALGEACTIVLRGATQQILDEAERSLHDALCVLAQTVKDSRTVYGGGCSEMLMAHAVTQLANRTPGKEAVAMESYAKALRMLPTIIADNAGYDSADLVAQLRAAHSEGNTTAGLDMREGTIGDMAILGITESFQVKRQVLLSAAEAAEVILRVDNIIKAAPRKRVPDHHPC
0 | 2 | 0 | 0 | MARS (protein) MRLFVSDGVPGCLPVLAAAGRARGRAEVLISTVGPEDCVVPFLTRPKVPVLQLDSGNYLFSTSAICRYFFLLSGWEQDDLTNQWLEWEATELQPALSAALYYLVVQGKKGEDVLGSVRRALTHIDHSLSRQNCPFLAGETESLADIVLWGALYPLLQDPAYLPEELSALHSWFQTLSTQEPCQRAAETVLKQQGVLALRPYLQKQPQPSPAEGRAVTNEPEEEELATLSEEEIAMAVTAWEKGLESLPPLRPQQNPVLPVAGERNVLITSALPYVNNVPHLGNIIGCVLSADVFARYSRLRQWNTLYLCGTDEYGTATETKALEEGLTPQEICDKYHIIHADIYRWFNISFDIFGRTTTPQQTKITQDIFQQLLKRGFVLQDTVEQLRCEHCARFLADRFVEGVCPFCGYEEARGDQCDKCGKLINAVELKKPQCKVCRSCPVVQSSQHLFLDLPKLEKRLEEWLGRTLPGSDWTPNAQFITRSWLRDGLKPRCITRDLKWGTPVPLEGFEDKVFYVWFDATIGYLSITANYTDQWERWWKNPEQVDLYQFMAKDNVPFHSLVFPCSALGAEDNYTLVSHLIATEYLNYEDGKFSKSRGVGVFGDMAQDTGIPADIWRFYLLYIRPEGQDSAFSWTDLLLKNNSELLNNLGNFINRAGMFVSKFFGGYVPEMVLTPDDQRLLAHVTLELQHYHQLLEKVRIRDALRSILTISRHGNQYIQVNEPWKRIKGSEADRQRAGTVTGLAVNIAALLSVMLQPYMPTVSATIQAQLQLPPPACSILLTNFLCTLPAGHQIGTVSPLFQKLENDQIESLRQRFGGGQAKTSPKPAVVETVTTAKPQQIQALMDEVTKQGNIVRELKAQKADKNEVAAEVAKLLDLKKQLAVAEGKPPEAPKGKKKK

More lines, now with the values behind:

Molecule | C-term flag | N-term FLAG | C-term IgG | N-term IgG
CSRP1 (protein) MPNWGGGKKCGVCQKTVYFAEEVQCEGNSFHKSCFLCMVCKKNLDSTTVAVHGEEIYCKSCYGKKYGPKGYGYGQGAGTLSTDKGESLGIKHEEAPGHRPTTNPNASKFAQKIGGSERCPRCSQAVYAAEKVIGAGKSWHKACFRCAKCGKGLESTTLADKDGEIYCKGCYAKNFGPKGFGFGQGAGALVHSE | 3 | 0 | 0 | 0
CD70 (protein) MPEEGSGCSVRRRPYGCVLRAALVPLVAGLVICLVVCIQRFAQAQQQLPLESLGWDVAELQLNHTGPQQDPRLYWQGGPALGRSFLHGPELDKGQLRIHRDGIYMVHIQVTLAICSSTTASRHHPTTLAVGICSPASRSISLLRLSFHQGCTIASQRLTPLARGDTLCTNLTGTLLPSRNTDETFFGVQWVRP | 2 | 0 | 0 | 0
CTHRC1 (protein) MWPPGRSITVKLREKTVSRKLEMNGPSAFQGLICGKYNGMCLQGPAGVPGRDGSPGANGIPGTPGIPGRDGFKGEKGECLRESFEESWTPNYKQCSWSSLNYGIDLGKIAECTFTKMRSNSALRVLFSGSLRLKCRNACCQRWYFTFNGAECSGPLPIEAIIYLDQGSPEMNSTINIHRTSSVEGLCEGIGAGLVDVAIWVGTCSDYPKGDASTGWNSVSRIIIEELPK | 2 | 0 | 0 | 0
SLC25A5 (protein) TDAAVSFAKDFLAGGVAAAISKTAVAPIERVKLLLQVQHASKQITADKQYKGIIDCVVRIPKEQGVLSFWRGNLANVIRYFPTQALNFAFKDKYKQIFLGGVDKRTQFWLYFAGNLASGGAAGATSLCFVYPLDFARTRLAADVGKAGAEREFRGLGDCLVKIYKSDGIKGLYQGFNVSVQGIIIYRAAYFGIYDTAKGMLPDPKNTHIVISWMIAQTVTAVAGLTSYPFDTVRRRMMMQSGRKGTDIMYTGTLDCWRKIARDEGGKAFFKGAWSNVLRGMGGAFVLVLYDEIKKYT | 30 | 19 | 3 | 6
ARF4 (protein) GLTISSLFSRLFGKKQMRILMVGLDAAGKTTILYKLKLGEIVTTIPTIGFNVETVEYKNICFTVWDVGGQDRIRPLWKHYFQNTQGLIFVVDSNDRERIQEVADELQKMLLVDELRDAVLLLFANKQDLPNAMAISEMTDKLGLQSLRNRTWYVQATCATQGTGLYEGLDWLSNELSKR | 4 | 4 | 0 | 0
